Data published in US20260022175A1 (Chugai, published 2026).

Assays:
[1] = target: T1, human FcRn (human, UniProt P55899 24-290; P61769 21-119); assay: SPR Biacore T200, Ab captured via Fab-kappa, pH 6.0, steady state
T1 construct: Prepared by the method of WO 2010/107110; also called hFcRn

[2] = target: T2, human FcγRIIb extracellular domain with C-terminal His-tag (human, UniProt P31994 43-217); assay: SPR; FcγRIIb bound amount per unit captured Ab
T2 construct: extracellular domain; also called hFcγR IIb
T2 sequence (looked up): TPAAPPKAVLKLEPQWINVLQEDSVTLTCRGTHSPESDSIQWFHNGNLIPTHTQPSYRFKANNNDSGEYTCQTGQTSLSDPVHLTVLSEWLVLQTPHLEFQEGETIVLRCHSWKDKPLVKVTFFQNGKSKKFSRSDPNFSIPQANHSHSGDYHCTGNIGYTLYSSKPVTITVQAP

[3] = target: T2, human FcγRIIb extracellular domain with …; assay: SPR; binding amount divided by that of 04H1389-G1m/04L1615-k0MT
[4] = target: T3, human FcγRIIa H allotype extracellular domain with C-terminal His-tag (human, UniProt P12318 34-217); assay: SPR Biacore T200, Ab captured via Fab-kappa, pH 7.4, 25C;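 also: each FcγR flowed as analyte over the captured antibodies, KD derived by 1:1 Langmuir or steady-state affinity fitting depending on the receptor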
T3 construct: extracellular domain; also called hFcγR IIa H
T3 sequence (looked up): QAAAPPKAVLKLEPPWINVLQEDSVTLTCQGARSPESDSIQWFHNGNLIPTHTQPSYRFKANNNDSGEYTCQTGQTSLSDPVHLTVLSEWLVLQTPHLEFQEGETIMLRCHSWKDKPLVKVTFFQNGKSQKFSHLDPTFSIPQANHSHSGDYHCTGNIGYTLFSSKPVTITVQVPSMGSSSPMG
Procedure: (§1) The interaction between the generated antibodies and human FcγRs was analyzed using Biacore T200. 50 mM Na-Phosphate, 150 mM NaCl, 0.05% Tween20 (pH 7.4) was used as the running buffer, and the assay was performed at 25° C. For the sensor chip, Series S SA (GE Healthcare) chips onto which CaptureSelect Human Fab-kappa Kinetics Biotin Conjugate (Thermo Fisher Scientific) was immobilized were used. The antibodies of interest were captured onto these chips and each FcγR diluted in the running buffer was allowed to interact with them. Chips were regenerated with 10 mM Glycine-HCl (pH 1.5) and 25 mM NaOH, and assay was performed by repeatedly capturing antibodies. The dissociation constants KD (mol/L) for FcγRs of each antibody were calculated using Biacore T200 Evaluation Software 2.0, and using the 1:1 Langmuir binding model for FcγRIa and FcγRIIIa and the steady state affinity model for FcγRIIa. For FcγRIIb, the binding amount of FcγRIIb per unit amount of antibody was calculated by correcting the binding amount of FcγRIIb obtained from the sensorgram obtained by the measurement with the amount of antibody captured onto the chip surface.

[5] = target: T4, human FcγRIa extracellular domain with C-terminal His-tag (human, UniProt P12314 16-292); assay: as above
T4 construct: extracellular domain; also called hFcγR Ia; hFcγRIa
T4 sequence (P12314 16-292): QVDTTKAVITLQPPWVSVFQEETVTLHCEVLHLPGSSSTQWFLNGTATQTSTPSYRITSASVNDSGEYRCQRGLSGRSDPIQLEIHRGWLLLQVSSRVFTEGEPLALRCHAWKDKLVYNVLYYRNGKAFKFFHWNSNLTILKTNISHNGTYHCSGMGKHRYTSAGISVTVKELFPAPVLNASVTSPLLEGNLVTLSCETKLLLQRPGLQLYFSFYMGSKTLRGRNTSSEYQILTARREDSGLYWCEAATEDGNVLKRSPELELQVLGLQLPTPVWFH
Procedure: as §1

[6] = target: T5, human FcγRIIIa V allotype extracellular domain with C-terminal His-tag (human, UniProt P08637 17-208); assay: as above
T5 construct: extracellular domain; also called hFcγR IIIa V
T5 sequence (P08637 17-208 F176V): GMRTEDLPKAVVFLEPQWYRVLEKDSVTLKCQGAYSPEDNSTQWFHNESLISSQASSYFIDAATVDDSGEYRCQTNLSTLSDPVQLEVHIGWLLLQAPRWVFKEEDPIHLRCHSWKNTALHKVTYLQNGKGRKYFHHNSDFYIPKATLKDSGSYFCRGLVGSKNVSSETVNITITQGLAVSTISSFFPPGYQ
Procedure: as §1

[7] = target: T6, human FcγRIIIa F allotype extracellular domain with C-terminal His-tag (human, UniProt P08637 17-208); assay: as above
T6 construct: extracellular domain; also called hFcγR IIIa F
T6 sequence (P08637 17-208): as the sequence (P08637 17-208 F176V) above, with V160F counted along it
Procedure: as §1

[8] = target: T7, human FcγRIIa R allotype extracellular domain with C-terminal His-tag (human, UniProt P12318 34-217); assay: as above
T7 construct: extracellular domain; also called hFcγR IIa R
T7 sequence (looked up): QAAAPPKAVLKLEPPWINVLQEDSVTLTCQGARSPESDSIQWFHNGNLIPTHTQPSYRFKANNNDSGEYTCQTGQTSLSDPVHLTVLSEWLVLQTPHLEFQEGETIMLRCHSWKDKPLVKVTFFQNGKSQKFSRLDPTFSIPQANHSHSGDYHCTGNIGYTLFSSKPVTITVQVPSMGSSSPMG
Procedure: as §1

[9] = target: T3, human FcγRIIa H allotype extracellular …; assay: SPR; KD of 04H1389-G1m/04L1615-k0MT divided by KD of variant
[10] = target: T4, human FcγRIa extracellular domain with …; assay: as above
[11] = target: T1, human FcRn; assay: as above
[12] = target: T5, human FcγRIIIa V allotype extracellular …; assay: as above
[13] = target: T7, human FcγRIIa R allotype extracellular …; assay: as above

T1 sequence (P55899 24-290 limits assumed, chain 1 of 2): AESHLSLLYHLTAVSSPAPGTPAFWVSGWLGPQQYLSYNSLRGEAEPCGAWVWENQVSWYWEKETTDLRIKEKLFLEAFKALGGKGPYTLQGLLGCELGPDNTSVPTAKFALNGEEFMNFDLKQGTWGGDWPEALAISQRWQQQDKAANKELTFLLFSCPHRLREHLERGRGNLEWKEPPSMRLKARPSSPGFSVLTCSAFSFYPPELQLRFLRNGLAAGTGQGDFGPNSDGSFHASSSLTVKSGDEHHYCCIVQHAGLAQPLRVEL
T1 sequence (P61769 21-119 limits assumed, chain 2 of 2): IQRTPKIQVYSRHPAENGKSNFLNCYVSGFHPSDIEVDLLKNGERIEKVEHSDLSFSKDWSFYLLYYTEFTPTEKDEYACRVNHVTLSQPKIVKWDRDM

Binder	Kd [1] [nM]	Binding amount [2]	Relative binding amount [3]	Kd [4] [nM]	Kd [5] [nM]	Kd [6] [nM]	Kd [7] [nM]	Kd [8] [nM]	Relative value to KD between G1m and hFcγRs [9]	Relative value to KD between G1m and hFcγRs [10]	Relative value to KD between G1m and hFcRn [11]	Relative value to KD between G1m and hFcγRs [12]	Relative value to KD between G1m and hFcγRs [13]
04H1389-Km481/04L1615-k0MT//04H1389-Hm498/04L1615-k0MT (antibody, Heterodimerized antibody with N434A/Y436T/Q438R/S440E) heavy 1: EVQLVESGGGLVKPGGSLRLSCAASGFTFSSKTMNWVRQAPGKGLEWVSSISTQSHYIYYAESVKGRFTISRDNAKNSLYLQMNSLRAEDTAVYYCARYGKREDMLWVFDYWGQGTLVTVSSASTKGPSVFPLAPSSKSTSGGTAALGCLVKDYFPEPVTVSWNSGALTSGVHTFPAVLQSSGLYSLSSVVTVPSSSLGTQTYICNVNHKPSNTKVDKRVEPKSCDKTHTCPPCPAPEFQWGPMVFLFPPKPKDVLMISRTPEVTCVVVDVSDEEPEVKFNWYVDGVEVHNAKTKPREEQYNATYRVVSVLPVLHQDWLNGKEYKCKVSNDALPAPEEKTISKAKGQPREPQVCTLPPSREEMTKNQVSLWCLVKGFYPSDIAVEWESNGQPENNYKTTPPVLDSDGSFFLYSKLTVDKSRWQQGNVFSCSVMHEALHAHTTRKELSLSP heavy 2: EVQLVESGGGLVKPGGSLRLSCAASGFTFSSKTMNWVRQAPGKGLEWVSSISTQSHYIYYAESVKGRFTISRDNAKNSLYLQMNSLRAEDTAVYYCARYGKREDMLWVFDYWGQGTLVTVSSASTKGPSVFPLAPSSKSTSGGTAALGCLVKDYFPEPVTVSWNSGALTSGVHTFPAVLQSSGLYSLSSVVTVPSSSLGTQTYICNVNHKPSNTKVDKRVEPKSCDKTHTCPPCPAPELLAGPSVFLFPPKPKDVLMISRTPEVTCVVVDVSHEEPEVKFNWYVDGVEVHNAKTKPREEQYNATYRVVSVLPVLHQDWLNGKEYKCKVSNDALPAPEEETISKAKGQPREPQVYTLPPSRCEMTKNQVSLSCAVKGFYPSDIAVEWESNGQPENNYKTTPPVLDSDGSFFLVSKLTVDKSRWQQGNVFSCSVMHEALHAHTTRKELSLSP light: DIVMTQSPLSLPVTPGEPASISCQGPSTGVGDYNYVHWYQQKPGQAPRLLIYFTSKKPSGVPDRFSGSGSGTDFTLKISRVEAEDVGVYYCQTYAAPLGPMFGQGTKLEIKRTVAAPSVFIFPPSDEQLKSGTASVVCLLNNFYPREAKVQWKVDNALQSGNSQESVTEQDSKDSTYSLSSTLTLSKADYEKHKVYACEVTHQGLSSPVTKSFNRGEC	470	0.021	1.9	210	0.042	0.62	1.4	290	5	1.1	2.8	1470	5.1
04H1389-Ks462/04L1615-k0MT//04H1389-Hs445/04L1615-k0MT (antibody, human IgG1, kappa, Heterodimerized antibody) heavy 1: EVQLVESGGGLVKPGGSLRLSCAASGFTFSSKTMNWVRQAPGKGLEWVSSISTQSHYIYYAESVKGRFTISRDNAKNSLYLQMNSLRAEDTAVYYCARYGKREDMLWVFDYWGQGTLVTVSSASTKGPSVFPLAPSSKSTSGGTAALGCLVKDYFPEPVTVSWNSGALTSGVHTFPAVLQSSGLYSLSSVVTVPSSSLGTQTYICNVNHKPSNTKVDKRVEPKSCDKTHTCPPCPAPEFQWGPMVFLFPPKPKDVLMISRTPEVTCVVVDVSDEEPEVKFNWYVDGVEVHNAKTKPREEQYNATYRVVSVLPVLHQDWLNGKEYKCKVSNDALPAPIEKTISKAKGQPREPQVYTLPPSREEMTKNQVSLWCLVKGFYPSDIAVEWESNGQPENNYKTTPPVLDSDGSFFLYSKLTVDKSRWQQGNVFSCSVMHEALHNHYTQKSLSLSP heavy 2: EVQLVESGGGLVKPGGSLRLSCAASGFTFSSKTMNWVRQAPGKGLEWVSSISTQSHYIYYAESVKGRFTISRDNAKNSLYLQMNSLRAEDTAVYYCARYGKREDMLWVFDYWGQGTLVTVSSASTKGPSVFPLAPSSKSTSGGTAALGCLVKDYFPEPVTVSWNSGALTSGVHTFPAVLQSSGLYSLSSVVTVPSSSLGTQTYICNVNHKPSNTKVDKRVEPKSCDKTHTCPPCPAPELLAGPSVFLFPPKPKDVLMISRTPEVTCVVVDVSHEEPEVKFNWYVDGVEVHNAKTKPREEQYNATYRVVSVLPVLHQDWLNGKEYKCKVSNDALPKPDEETISKAKGQPREPQVYTLPPSREEMTKNQVSLSCAVKGFYPSDIAVEWESNGQPENNYKTTPPVLDSDGSFFLVSKLTVDKSRWQQGNVFSCSVMHEALHNHYTQKSLSLSP light: DIVMTQSPLSLPVTPGEPASISCQGPSTGVGDYNYVHWYQQKPGQAPRLLIYFTSKKPSGVPDRFSGSGSGTDFTLKISRVEAEDVGVYYCQTYAAPLGPMFGQGTKLEIKRTVAAPSVFIFPPSDEQLKSGTASVVCLLNNFYPREAKVQWKVDNALQSGNSQESVTEQDSKDSTYSLSSTLTLSKADYEKHKVYACEVTHQGLSSPVTKSFNRGEC	1600	0.03	2.6	67	0.047	1.1	2.1	160	15.8	1	0.8	830	9.1
04H1389-Ks473/04L1615-k0MT//04H1389-Hs482/04L1615-k0MT (antibody, Heterodimerized antibody with N434A/Y436T/Q438R/S440E) heavy 1: EVQLVESGGGLVKPGGSLRLSCAASGFTFSSKTMNWVRQAPGKGLEWVSSISTQSHYIYYAESVKGRFTISRDNAKNSLYLQMNSLRAEDTAVYYCARYGKREDMLWVFDYWGQGTLVTVSSASTKGPSVFPLAPSSKSTSGGTAALGCLVKDYFPEPVTVSWNSGALTSGVHTFPAVLQSSGLYSLSSVVTVPSSSLGTQTYICNVNHKPSNTKVDKRVEPKSCDKTHTCPPCPAPEFQWGPMVFLFPPKPKDVLMISRTPEVTCVVVDVSDEEPEVKFNWYVDGVEVHNAKTKPREEQYNATYRVVSVLPVLHQDWLNGKEYKCKVSNDALPAPIEKTISKAKGQPREPQVYTLPPSREEMTKNQVSLWCLVKGFYPSDIAVEWESNGQPENNYKTTPPVLDSDGSFFLYSKLTVDKSRWQQGNVFSCSVMHEALHAHTTRKELSLSP heavy 2: EVQLVESGGGLVKPGGSLRLSCAASGFTFSSKTMNWVRQAPGKGLEWVSSISTQSHYIYYAESVKGRFTISRDNAKNSLYLQMNSLRAEDTAVYYCARYGKREDMLWVFDYWGQGTLVTVSSASTKGPSVFPLAPSSKSTSGGTAALGCLVKDYFPEPVTVSWNSGALTSGVHTFPAVLQSSGLYSLSSVVTVPSSSLGTQTYICNVNHKPSNTKVDKRVEPKSCDKTHTCPPCPAPELLAGPSVFLFPPKPKDVLMISRTPEVTCVVVDVSHEEPEVKFNWYVDGVEVHNAKTKPREEQYNATYRVVSVLPVLHQDWLNGKEYKCKVSNDALPKPDEETISKAKGQPREPQVYTLPPSREEMTKNQVSLSCAVKGFYPSDIAVEWESNGQPENNYKTTPPVLDSDGSFFLVSKLTVDKSRWQQGNVFSCSVMHEALHAHTTRKELSLSP light: DIVMTQSPLSLPVTPGEPASISCQGPSTGVGDYNYVHWYQQKPGQAPRLLIYFTSKKPSGVPDRFSGSGSGTDFTLKISRVEAEDVGVYYCQTYAAPLGPMFGQGTKLEIKRTVAAPSVFIFPPSDEQLKSGTASVVCLLNNFYPREAKVQWKVDNALQSGNSQESVTEQDSKDSTYSLSSTLTLSKADYEKHKVYACEVTHQGLSSPVTKSFNRGEC	450	0.026	2.3	75	0.051	1.2	2.3	160	14.1	0.9	2.9	760	9
